The target of one test is FcγRIIIb (CD16b) (UniProt O75015). Kind of test: SPR; BIAcore X100; receptor (20 µg/mL) captured by anti-His-tag antibodies on a CM5 chip, each receptor on its own chip; charge variant as analyte, 2.5 µM to 40 µM, single-cycle; HBS-EP buffer (10 mM HEPES pH 7.4, 150 mM NaCl, 50 µM EDTA, 0.005% P20). Background: In SPR one partner is held on a chip, and binding of the other changes the refractive index at the surface.

The next test concerns the target FcγRIIIa (CD16a) (UniProt P08637). Described as above.

The koff is a measure of how fast the partners let go of each other. A word on the kon: it is the rate constant with which the complex forms. What is called Kd is a measure of binding affinity in units of concentration. The low end stands for higher affinity, the high end for lower affinity.

In the test with FcγRIIIb (CD16b), “trastuzumab proposed biosimilar, main charge variant (main peak) (antibody)” had a koff of 0.34 s⁻¹ and a kon of 15400 M⁻¹ s⁻¹.
Take “trastuzumab proposed biosimilar, basic charge variants (basic peak) (antibody; other documents disagree on this pair)”: in the test with FcγRIIIa (CD16a), the koff was determined as 0.05 s⁻¹ and the kon turned out to be 31300 M⁻¹ s⁻¹.
In the test with FcγRIIIb (CD16b), “trastuzumab proposed biosimilar, acidic charge variants (acidic peak) (antibody)” showed a Kd of 14.3 µM, a koff of 0.82 s⁻¹ and a kon of 106000 M⁻¹ s⁻¹.
In the test with FcγRIIIa (CD16a), “trastuzumab proposed biosimilar, main charge variant (main peak) (antibody; other documents disagree on this pair)” had a koff of 0.09 s⁻¹ and a kon of 36600 M⁻¹ s⁻¹.
In the test with FcγRIIIa (CD16a), “trastuzumab proposed biosimilar, acidic charge variants (acidic peak) (antibody; other documents disagree on this pair)” showed a koff of 0.08 s⁻¹ and a kon of 102000 M⁻¹ s⁻¹.
In the test with FcγRIIIb (CD16b), “trastuzumab proposed biosimilar, basic charge variants (basic peak) (antibody)” gave a koff of 0.33 s⁻¹ and a kon of 25600 M⁻¹ s⁻¹.

The values above are taken from publication PMC10314757.
